Target: T1, GST-Rsa1p (yeast (S. cerevisiae), UniProt Q08932 1-381)
T1 sequence: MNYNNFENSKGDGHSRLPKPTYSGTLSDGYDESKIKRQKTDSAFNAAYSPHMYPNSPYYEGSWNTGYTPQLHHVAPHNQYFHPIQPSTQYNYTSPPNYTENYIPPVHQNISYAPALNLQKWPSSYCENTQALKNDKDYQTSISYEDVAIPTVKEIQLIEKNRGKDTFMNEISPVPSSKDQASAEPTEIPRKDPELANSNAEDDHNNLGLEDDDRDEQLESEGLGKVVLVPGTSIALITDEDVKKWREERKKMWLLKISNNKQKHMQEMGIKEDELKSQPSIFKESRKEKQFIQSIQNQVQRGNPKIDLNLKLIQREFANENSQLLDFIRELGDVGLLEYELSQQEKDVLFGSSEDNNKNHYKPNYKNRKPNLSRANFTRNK
Experiment: pull-down

binding result: binds
B1: recombinant Snu13p (natural protein)
chain: MSAPNPKAFPLADAALTQQILDVVQQAANLRQLKKGANEATKTLNRGISEFIIMAADCEPIEILLHLPLLCEDKNVPYVFVPSRVALGRACGVSRPVIAASITTNDASAIKTQIYAVKDKIETLLI

— paper PMC2234240 (The Journal of Cell Biology, 2008)
